The data set has as its target Ints3-555-976 R788E/K789E (human, UniProt Q68E01-2 555-976, R788E;K789E). Briefly: EMSA; not reduced vs WT (WT itself weak); up to 200 uM; 20 mM Hepes pH 7.4, 100 mM NaCl, 1 mM MgCl2, 1 mg/ml BSA, 2 mM DTT, 5% glycerol; on ice 30 min; 7.5 nM probe; native 5% PAGE in 1X TBE. As to conditions: protein: recombinant; chain copies: 2; label: 5' 32P; single strand. (Mobility shift assays separate free from complexed probe on a gel.)

Ints3-555-976 R788E/K789E, sequence (Q68E01 556-977 R789E/K790E): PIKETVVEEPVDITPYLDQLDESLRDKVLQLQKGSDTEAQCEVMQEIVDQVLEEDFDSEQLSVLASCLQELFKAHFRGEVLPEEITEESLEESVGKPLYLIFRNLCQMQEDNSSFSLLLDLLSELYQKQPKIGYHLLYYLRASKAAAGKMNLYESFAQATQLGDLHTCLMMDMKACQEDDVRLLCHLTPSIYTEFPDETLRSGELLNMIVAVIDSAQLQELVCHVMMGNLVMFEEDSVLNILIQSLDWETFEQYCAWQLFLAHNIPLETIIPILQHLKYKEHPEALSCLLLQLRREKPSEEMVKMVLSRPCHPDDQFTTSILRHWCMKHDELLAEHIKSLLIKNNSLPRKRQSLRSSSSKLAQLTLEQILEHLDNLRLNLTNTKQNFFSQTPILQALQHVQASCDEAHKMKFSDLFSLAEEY

Consider TTTTTTTTTTTTTTTTTTTTTTTTTTTTTT (ssDNA) [dT30], for which the binding result is on record as “binds”.

Values taken from PMC7948952, “Structural basis for multifunctional roles of human Ints3 C-terminal domain” (The Journal of Biological Chemistry, 2020).
